The values below come from patent publication CN117964771A (ZHIZE TONGKANG GUANGZHOU BIOTECHNOLOGY CO LTD, dated 2024).

The assay has as its target T1, 人基质金属蛋白酶7(hMMP7)重组蛋白 (human, UniProt P09237 18-267, limits assumed).
T1 construct: Recombinant protein made according to UniProt P09237; also called MMP7抗原; MMP7蛋白
T1 sequence (looked up): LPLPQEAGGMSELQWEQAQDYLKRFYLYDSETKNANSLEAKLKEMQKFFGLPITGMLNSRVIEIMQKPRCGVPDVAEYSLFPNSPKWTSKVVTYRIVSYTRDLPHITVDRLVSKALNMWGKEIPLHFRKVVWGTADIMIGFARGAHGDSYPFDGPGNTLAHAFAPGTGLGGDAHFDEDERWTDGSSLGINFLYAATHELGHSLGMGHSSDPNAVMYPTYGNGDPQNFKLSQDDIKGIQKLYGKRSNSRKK
Briefly: SPR, labelled MMP7 immobilised on chip, antibody as analyte (100 nM, 2-fold dilutions), 1:1 Langmuir model. Background: In SPR one partner is held on a chip, and binding of the other changes the refractive index at the surface.

B1: MMP7单克隆抗体M4 (antibody, mouse IgG1, kappa, V domains shown)
VH: QVQLQQSGAELMKPGASVKLSCKASGYTFTSYYMYWVKQRPGQGLEWIGEINPSNADTEFNEKFKSKATLTVDKSSSTAYMQLSSLTSEDSAVYYCTRWPLYGAMDYWGQGTSVTVSS
VL: DVQITQSPSYLAASPGETITINCRASKSISKYLAWYQEKPGKTNKLLIYSGHWLQSGIPSRFSGSGSGSDFTLTISSLEPEDFAMYYCQQHFEYPWTFGAGTKLELKR
B1: the Kd – broadly, the constant that tells how readily two partners part at equilibrium – is less than 1 nM.
